Experimental data published in article PMC8149785.

Key:
[1] = target: human C3b (human) (UniProt P01024); assay: SPR; C3b amine coupled to a C1 chip (233 RU murine, 258 RU human); FH flowed over, two-fold dilution series from 2 uM to 6 nM; BIAcore T200, 25°C, HBSP+ (10 mM HEPES, 150 mM NaCl, 0.05% P20); equilibrium data, 1:1 binding model
[2] = target: mouse C3b (mouse) (UniProt P01027); assay: as above

recombinant murine factor H (from UniProt P06909 19-1234) (natural protein)
Kd [1]: 1600 nM
Kd [2]: 1200 nM
